{"source": "patent US20240376170A1", "about": "(BRIGHT PEAK THERAPEUTICS, published 2024)", "binders": {"B1": {"name": "CMP-331 (ligand)", "chain": "APTSSSTKKTQLQLEHLLLDLQKILNGINNYKNPKLTR[Nle]L[hSer]Y(9x polyethylene glycol‑azido)KFY(8x polyethylene glycol‑amino)[Nle]PKKATELKHLQCLEEELKPLEEVL[hSer]LAQSKNFHLRPRDLISNINVIVLELKGSETTF[hSer]CEYADETATIVEFLNRWITFSQSIISTLT", "modifications": "bridge N-23; not fully specified (bridges)"}, "B2": {"name": "CMP-327, Matriptase cleaved molecule (ligand)", "chain": "APTSSSTKKTQLQLEHLLLDLQEILNGINNYKNPKLTR[Nle]L[hSer][Yn3″]KF[Ygp″][Nle]PKKATELKHLQCLEEELKPLEEVL[hSer]LAQSKNFHLRPRDLISNINVIVLELKGSETTF[hSer]CEYADETATIVEFLNRWITFSQSIISTLT", "modifications": "ends and bridges not checked; also: Lys9-Glu23 peptide bridge cut by matriptase, fragments left on side chains not given here"}, "B3": {"name": "CMP-327, uPa cleaved molecule (ligand)", "chain": "APTSSSTKKTQLQLEHLLLDLQEILNGINNYKNPKLTR[Nle]L[hSer][Yn3″]KF[Ygp″][Nle]PKKATELKHLQCLEEELKPLEEVL[hSer]LAQSKNFHLRPRDLISNINVIVLELKGSETTF[hSer]CEYADETATIVEFLNRWITFSQSIISTLT", "modifications": "ends and bridges not checked; also: after uPa cleavage, remnants of the Lys9–Glu23 peptide linker not given here"}, "B4": {"name": "CMP-315, Matriptase cleaved molecule (ligand)", "chain": "APTSSSTKKTQLQLEHLLLDLQKILNGINNYKNPKLTR[Nle]L[hSer]Y(9x polyethylene glycol‑azido)KFY(8x polyethylene glycol‑amino)[Nle]PKKATELKHLQCLEEELKPLEEVL[hSer]LAQSKNFHLRPRDLISNINVIVLELKGSETTF[hSer]CEYADETATIVEFLNRWITFSQSIISTLT", "modifications": "also: matriptase cleavage product, not given here as a sequence, Lys23 side-chain attachment remnant unknown"}, "B5": {"name": "CMP-331, MMP2 cleaved molecule (ligand)", "chain": "APTSSSTKKTQLQLEHLLLDLQKILNGINNYKNPKLTR[Nle]L[hSer]Y(9x polyethylene glycol‑azido)KFY(8x polyethylene glycol‑amino)[Nle]PKKATELKHLQCLEEELKPLEEVL[hSer]LAQSKNFHLRPRDLISNINVIVLELKGSETTF[hSer]CEYADETATIVEFLNRWITFSQSIISTLT", "modifications": "not fully specified; also: N-terminus (pentanedioic acid-PEG9 linker) and Lys23 side chain attached to another sequence, what remains after MMP2 cleavage is not given here"}, "B6": {"name": "CMP-315, uPa cleaved molecule (ligand)", "chain": "APTSSSTKKTQLQLEHLLLDLQKILNGINNYKNPKLTR[Nle]L[hSer]Y(9x polyethylene glycol‑azido)KFY(8x polyethylene glycol‑amino)[Nle]PKKATELKHLQCLEEELKPLEEVL[hSer]LAQSKNFHLRPRDLISNINVIVLELKGSETTF[hSer]CEYADETATIVEFLNRWITFSQSIISTLT", "modifications": "also: uPa cleavage product, not given here as a sequence, Lys23 side-chain attachment remnant unknown"}, "B7": {"name": "CMP-316, uPa cleaved molecule (ligand)", "chain": "APTSSSTKKTQLQLEHLLLDLQKILNGINNYKNPKLTR[Nle]L[hSer]Y(9x polyethylene glycol‑azido)KFY(8x polyethylene glycol‑amino)[Nle]PKKATELKHLQCLEEELKPLEEVL[hSer]LAQSKNFHLRPRDLISNINVIVLELKGSETTF[hSer]CEYADETATIVEFLNRWITFSQSIISTLT", "modifications": "also: uPa cleavage product, not given here as a sequence, Lys23 side-chain attachment remnant unknown"}, "B8": {"name": "CMP-327 (ligand)", "chain": "APTSSSTKKTQLQLEHLLLDLQEILNGINNYKNPKLTR[Nle]L[hSer][Yn3″]KF[Ygp″][Nle]PKKATELKHLQCLEEELKPLEEVL[hSer]LAQSKNFHLRPRDLISNINVIVLELKGSETTF[hSer]CEYADETATIVEFLNRWITFSQSIISTLT", "modifications": "bridge 9-23; not fully specified (bridges); ends not checked; also: further groups not given here"}, "B9": {"name": "CMP-326, Matriptase cleaved molecule (ligand)", "chain": "APTSSSTKKTQLQLEHLLLDLQEILNGINNYKNPKLTR[Nle]L[hSer][Yn3″]KF[Ygp″][Nle]PKKATELKHLQCLEEELKPLEEVL[hSer]LAQSKNFHLRPRDLISNINVIVLELKGSETTF[hSer]CEYADETATIVEFLNRWITFSQSIISTLT", "modifications": "not fully specified; ends and bridges not checked; also: Lys9-Glu23 peptide bridge cut by matriptase, fragments left on side chains not given here"}, "B10": {"name": "CMP-327, MMP2 cleaved molecule (ligand)", "chain": "APTSSSTKKTQLQLEHLLLDLQEILNGINNYKNPKLTR[Nle]L[hSer][Yn3″]KF[Ygp″][Nle]PKKATELKHLQCLEEELKPLEEVL[hSer]LAQSKNFHLRPRDLISNINVIVLELKGSETTF[hSer]CEYADETATIVEFLNRWITFSQSIISTLT", "modifications": "ends and bridges not checked; also: Lys9-Glu23 peptide bridge cut by MMP2, fragments left on side chains not given here"}, "B11": {"name": "CMP-316, Matriptase cleaved molecule (ligand)", "chain": "APTSSSTKKTQLQLEHLLLDLQKILNGINNYKNPKLTR[Nle]L[hSer]Y(9x polyethylene glycol‑azido)KFY(8x polyethylene glycol‑amino)[Nle]PKKATELKHLQCLEEELKPLEEVL[hSer]LAQSKNFHLRPRDLISNINVIVLELKGSETTF[hSer]CEYADETATIVEFLNRWITFSQSIISTLT", "modifications": "also: matriptase cleavage product, not given here as a sequence, Lys23 side-chain attachment remnant unknown"}, "B12": {"name": "CMP-326, uPa cleaved molecule (ligand)", "chain": "APTSSSTKKTQLQLEHLLLDLQEILNGINNYKNPKLTR[Nle]L[hSer][Yn3″]KF[Ygp″][Nle]PKKATELKHLQCLEEELKPLEEVL[hSer]LAQSKNFHLRPRDLISNINVIVLELKGSETTF[hSer]CEYADETATIVEFLNRWITFSQSIISTLT", "modifications": "not fully specified; ends and bridges not checked; also: Lys9-Glu23 peptide bridge cut by uPa, fragments left on side chains not given here"}, "B13": {"name": "CMP-326 (ligand)", "chain": "APTSSSTKKTQLQLEHLLLDLQEILNGINNYKNPKLTR[Nle]L[hSer][Yn3″]KF[Ygp″][Nle]PKKATELKHLQCLEEELKPLEEVL[hSer]LAQSKNFHLRPRDLISNINVIVLELKGSETTF[hSer]CEYADETATIVEFLNRWITFSQSIISTLT", "modifications": "bridge 9-23; not fully specified (bridges); ends not checked; also: further groups not given here"}, "B14": {"name": "CMP-316, MMP2 cleaved molecule (ligand)", "chain": "APTSSSTKKTQLQLEHLLLDLQKILNGINNYKNPKLTR[Nle]L[hSer]Y(9x polyethylene glycol‑azido)KFY(8x polyethylene glycol‑amino)[Nle]PKKATELKHLQCLEEELKPLEEVL[hSer]LAQSKNFHLRPRDLISNINVIVLELKGSETTF[hSer]CEYADETATIVEFLNRWITFSQSIISTLT", "modifications": "also: K23 side chain attached to another sequence, m93 after MMP2 cleavage, product not given here as a sequence"}, "B15": {"name": "CMP-326, MMP2 cleaved molecule (ligand)", "chain": "APTSSSTKKTQLQLEHLLLDLQEILNGINNYKNPKLTR[Nle]L[hSer][Yn3″]KF[Ygp″][Nle]PKKATELKHLQCLEEELKPLEEVL[hSer]LAQSKNFHLRPRDLISNINVIVLELKGSETTF[hSer]CEYADETATIVEFLNRWITFSQSIISTLT", "modifications": "not fully specified; ends and bridges not checked; also: Lys9-Glu23 peptide bridge cut by MMP2, fragments left on side chains not given here"}}, "note": "Bridges are numbered along the chain shown (N, C = ends). Primed or numbered codes have the meaning given here. [ ]: non-standard residue; d: D form. 8x polyethylene glycol‑amino = O-(8x polyethylene glycol-amino)-tyrosine, SITE 45; 9x polyethylene glycol‑azido = O-(9x polyethylene glycol-azido)-tyrosine, SITE 42; Ygp″ = O-(8x polyethylene glycol-amino)-tyrosine; Yn3″ = O-(9x polyethylene glycol-azido)-tyrosine; hSer = N[C@@H](CCO)C(=O)O; Nle = CCCC[C@H](N)C(=O)O", "data": [{"target": "T1, IL-2 receptor βγ complex (human, UniProt P14784 27-551; P31785 23-369)", "T1 sequence (looked up) 1": "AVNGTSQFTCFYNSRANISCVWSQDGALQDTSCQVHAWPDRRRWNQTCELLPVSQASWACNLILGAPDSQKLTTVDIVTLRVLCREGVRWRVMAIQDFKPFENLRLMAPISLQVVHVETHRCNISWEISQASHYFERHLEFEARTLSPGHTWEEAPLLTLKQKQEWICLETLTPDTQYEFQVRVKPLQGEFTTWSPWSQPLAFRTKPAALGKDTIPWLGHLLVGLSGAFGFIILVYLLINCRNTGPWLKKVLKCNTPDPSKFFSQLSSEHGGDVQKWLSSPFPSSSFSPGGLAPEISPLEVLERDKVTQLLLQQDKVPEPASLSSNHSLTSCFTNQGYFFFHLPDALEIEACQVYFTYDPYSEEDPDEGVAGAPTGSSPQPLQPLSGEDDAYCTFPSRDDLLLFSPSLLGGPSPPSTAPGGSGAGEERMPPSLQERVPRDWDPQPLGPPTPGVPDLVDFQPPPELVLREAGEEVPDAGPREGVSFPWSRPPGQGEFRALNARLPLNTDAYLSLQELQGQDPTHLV", "T1 sequence (looked up) 2": "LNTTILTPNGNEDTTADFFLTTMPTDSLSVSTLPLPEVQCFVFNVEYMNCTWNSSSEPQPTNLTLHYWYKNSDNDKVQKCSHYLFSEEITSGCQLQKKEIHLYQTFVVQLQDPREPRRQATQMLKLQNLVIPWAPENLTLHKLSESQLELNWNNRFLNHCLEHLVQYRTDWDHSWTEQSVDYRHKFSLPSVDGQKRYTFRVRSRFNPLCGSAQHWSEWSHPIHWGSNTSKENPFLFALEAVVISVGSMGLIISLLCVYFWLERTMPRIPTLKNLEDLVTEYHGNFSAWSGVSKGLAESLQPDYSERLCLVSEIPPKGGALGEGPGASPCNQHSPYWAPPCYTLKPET", "assay": "cell-based or functional assay", "units": {"Average EC50, pSTAT5 Assay in NK cells": "nM"}, "values": [{"binder": "B1", "Average EC50, pSTAT5 Assay in NK cells": 6.59}, {"binder": "B2", "Average EC50, pSTAT5 Assay in NK cells": 17.3}, {"binder": "B3", "Average EC50, pSTAT5 Assay in NK cells": 12.1}, {"binder": "B4", "Average EC50, pSTAT5 Assay in NK cells": 0.387}, {"binder": "B5", "Average EC50, pSTAT5 Assay in NK cells": 5.09}, {"binder": "B6", "Average EC50, pSTAT5 Assay in NK cells": 0.335}, {"binder": "B7", "Average EC50, pSTAT5 Assay in NK cells": 0.533}, {"binder": "B8", "Average EC50, pSTAT5 Assay in NK cells": 16.6}, {"binder": "B9", "Average EC50, pSTAT5 Assay in NK cells": 17.6}, {"binder": "B10", "Average EC50, pSTAT5 Assay in NK cells": 0.85}, {"binder": "B11", "Average EC50, pSTAT5 Assay in NK cells": 0.617}, {"binder": "B12", "Average EC50, pSTAT5 Assay in NK cells": 18}, {"binder": "B13", "Average EC50, pSTAT5 Assay in NK cells": 15.5}, {"binder": "B14", "Average EC50, pSTAT5 Assay in NK cells": 0.46}, {"binder": "B15", "Average EC50, pSTAT5 Assay in NK cells": 16}]}]}
